Experimental data: PMC11009412, “Pathogenic mutations of human phosphorylation sites affect protein–protein interactions” (Nature Communications, 2024)
Each block holds one substance with its values, some of them ahead of it.

How the values were obtained:
14-3-3 epsilon (YWHAE) [1] = target: 14-3-3 epsilon (YWHAE) (UniProt P62258); assay: ITC; PEAQ-ITC, 18 °C, 400 µM peptide in the syringe, 25 µM 14-3-3ε in the reaction chamber; 20 mM HEPES pH 7.0, 150 mM NaCl, 2 mM DTT
PLCG1 = PLCG1 (UniProt P19174); assay: PRISMA peptide-membrane pull-down, SILAC MS; conditions: reference: unphosphorylated wild-type peptide; sites Y1092
GRB2 = GRB2 (UniProt P62993); assay: PRISMA peptide-membrane pull-down, SILAC MS; conditions: reference: unphosphorylated wild-type peptide; sites Y1092
STAT3 = STAT3 (UniProt P40763); assay: PRISMA peptide-membrane pull-down, SILAC MS; conditions: reference: unphosphorylated wild-type peptide; sites Y1092
14-3-3 gamma = 14-3-3 gamma (UniProt P61981); assay: PRISMA alanine-scan pull-down, LFQ MS; conditions: reference: unphosphorylated wild-type peptide; sites S102
14-3-3 theta (YWHAQ) = 14-3-3 theta (YWHAQ) (UniProt P27348); assay: PRISMA alanine-scan pull-down, LFQ MS; conditions: reference: unphosphorylated wild-type peptide; sites S102
14-3-3 eta (YWHAH) = 14-3-3 eta (YWHAH) (UniProt Q04917); assay: PRISMA alanine-scan pull-down, LFQ MS; conditions: reference: unphosphorylated wild-type peptide; sites S102
[2] = target: 14-3-3 beta/alpha (YWHAB) (UniProt P31946); assay: PRISMA alanine-scan pull-down, LFQ MS; conditions: reference: unphosphorylated wild-type peptide; sites S102
14-3-3 zeta (YWHAZ) = 14-3-3 zeta (YWHAZ) (UniProt P63104); assay: PRISMA alanine-scan pull-down, LFQ MS; conditions: reference: unphosphorylated wild-type peptide; sites S102
14-3-3 epsilon (YWHAE) [3] = target: 14-3-3 epsilon (YWHAE) (UniProt P62258); assay: PRISMA alanine-scan pull-down, LFQ MS; conditions: reference: unphosphorylated wild-type peptide; sites S102

Kd (14-3-3 epsilon (YWHAE) [1]): 3.4 µM
Substance: GATAD1 phosphopeptide 95-LRNTKYKpSAPAAEKK-109

binding against the reference (PLCG1): stronger
other: SILAC ratio phos/wt (GRB2): > 20
binding against the reference (STAT3): stronger
Substance: EGFR (from UniProt P00533) pTyr1092 peptide

binding against the reference (14-3-3 gamma): stronger
binding against the reference (14-3-3 theta (YWHAQ)): stronger
binding against the reference (14-3-3 eta (YWHAH)): stronger
binding against the reference [2]: stronger
binding against the reference (14-3-3 zeta (YWHAZ)): stronger
binding against the reference (14-3-3 epsilon (YWHAE) [3]): stronger
Substance: GATAD1 (from UniProt Q8WUU5) pS102 peptide
